The target of this assay is WD-40 repeat-containing protein 5 (WDR5), full-length (human, UniProt P61964 1-334). In words: ITC. Background: ITC needs no label: the signal is the heat of the interaction.

The values that follow come from paper PMC7529705 (Biochemistry, 2020).

On to ARTKQTARKSTG [Histone H3 1–12aa unmodified peptide], for which the Kd turned out to be 10.6 ± 0.8 µM.

What is called Kd is the free concentration of one partner at which half of the binding sites on the other are occupied at equilibrium, for simple one-to-one binding. The low end stands for tighter binding, the high end for weaker binding.
